Data as given in the DeepSol protein solubility set.

Experiment: soluble on expression in E. coli; label from the status in PepcDB or PDB records

Row | Sequence | soluble on expression in E. coli
1 | GEDKKGGTKPSNEAALTKTENLDFRLSFNKIKVTTDQNHFSGGTSIEQLKQWFGDPNKSEQRNAGNITLDSYTWVKDGAVINAQLYKNSTVARSISNFSFSREAKIGKEDYDELKIGESYKKIVEKLGEPDVLSQSMSSDKEEMQTVWSSGIKTKSSSATIELYFENGLLKNKTQKDLE | soluble
2 | GEEEKKRTARTDYWLQPEIIVKIITKKLGEKYHKKKAIVKEVIDKYTAVVKMIDSGDKLKLDQTHLETVIPAPGKRILVLNGGYRGNEGTLESINEKTFSATIVIETGPLKGRRVEGIQYEDISKLA | soluble
3 | GEEQPQQISVASGTPVSADQTPATPQEQPRAPWWDASPGVQRLITLKDPQVVCEAASAGLLKTLRFVKYLPCFQILPLDQQLVLVRSCWAPLLMLELAQDHLHFEMMEIPETNTTQEMLTTRRQETEGPEPAEPQATEQPQMVSAEAGHLLPAAAVQAIKSFFFKCWSLNIDTKEYAYLKGTVLFNPDLPGLQCVKYIEGLQWRTQQILTEHIRMMQREYQIRSAELNSALFLLRFINSDVVTELFFRPIIGAVSMDDMMLEMLCAKL | soluble
4 | GFTVALIQGDGIGPEIVSKSKRILAKINELYSLPIEYIEVEAGDRALARYGEALPKDSLKIIDKADIILKGPVGESAADVVVKLRQIYDMYANIRPAKSIPGIDTKYGNVDILIVRENTEDLYKGFEHIVSDGVAVGMKIITRFASERIAKVGLNFALRRRKKVTCVHKANVMRITDGLFAEACRSVLKGKVEYSEMYVDAAAANLVRNPQMFDVIVTENVYGDILSDEASQIAGSLGIAPSANIGDKKALFEPVHGAAFDIAGKNIGNPTAFLLSVSMMYERMYELSNDDRYIKASRALENAIYLVYKERKALTPDVGGNATTDDLINEIYNKLG | soluble
5 | GGGSCYFIPNEGVPGDSTRKCMDLKGNKHPINSEWQTDNCETCTCYETEISCCTLVSTPVGYDKDNCQRIFKKEDCKYIVVEKKDPKKTCSVSEWII | soluble
6 | GGSHMELPGSSMKPSGEDQAALAAGPWEECFQAAVQLALRAGQIIRKALTEEKRVSTKTSAADLVTETDHLVEDLIISELRERFPSHRFIAEEAAASGAKCVLTHSPTWIIDPIDGTCNFVHRFPTVAVSIGFAVRQELEFGVIYHCTEERLYTGRRGRGAFCNGQRLRVSGETDLSKALVLTEIGPKRDPATLKLFLSNMERLLHAKAHGVRVIGSSTLALCHLASGAADAYYQFGLHCWDLAAATVIIREAGGIVIDTSGGPLDLMACRVVAASTREMAMLIAQALQTINYGRDDEK | soluble
7 | GHHHHHHAIAENLYFQSHGHGGYDSDFSDDEHCGESSKRKKRTVEDDLLLQKPFQKEKHGKVAHKQVAAELLDREEARNRRFHLIAMDAYQRHRKFVNDYILYYGGKKEDFKRLGENDKTDLDVIRENHRFLWNEEDEMDMTWEKRLAKKYYDKLFKEYCIADLSKYKENKFGFRWRVEKEVISGKGQFFCGNKYCDKKEGLKSWEVNFGYIEHGEKRNALVKLRLCQECSIKLNFHHRRKEIKSKKRKDKTKKDCEESSHKKSRLSSAEEASKKKDKGHSSSKKSEDSLLRNSDEEESASESELWKGPLPETDEKSQEEEFDEYFQDLFL | soluble
8 | GHMGITRDVQVPDVRGQSSADAIATLQNRGFKIRTLQKPDSTIPPDHVIGTDPAANTSVSAGDEITVNVSTGPEQREIPDVSTLTYAEAVKKLTAAGFGRFKQANSPSTPELVGKVIGTNPPANQTSAITNVVIIIVGSGPATKDIPDVAGQTVDVAQKNLNVYGFTKFSQASVDSPRPAGEVTGTNPPAGTTVPVDSVIELQVSKGNQFVMPDLSGMFWVDAEPRLRALGWTGMLDKGADVDAGGSQHNRVVYQNPPAGTGVNRDGIITLRFGQ | soluble
9 | GHMKSEKEKMLAGHLYNPADLELVKERERARRLVRLYNETLETEYDKRTGLLKELFGSTGERLFIEPNFRCDYGYNIHVGENFFMNFDGVILDVCEVRIGDHCFIGPGVHIYTATHPLDPHERNSGLEYGKPVVIGHNVWIGGRAVINPGVTIGDNAVIASGAVVTKDVPANAVVGGNPAKVIKWLK | soluble
10 | GHMNVKLKVFHAGSLTEPMKAFKRAFEEKHPNVEVQTEAAGSAATIRKVTELGRKADVIATADYTLIQKMMYPEFANWTIMFAKNQIVLAYRNDSRYADEINSQNWYEILKRPDVRFGFSNPNDDPCGYRSLMAIQLAELYYNDPTIFDELVAKNSNLRFSEDNGSYVLRMPSSERIEINKSKIMIRSMEMELIHLVESGELDYFFIYKSVAKQHGFNFVELPVEIDLSSPDYAELYSKVKVVLANGKEVTGKPIVYGITIPKNAENRELAVEFVKLVISEEGQEILRELGQEPLVPPRADTAVPSLKAMVEVS | soluble
11 | GHMPAYVFSKESFLKFLEGHLEDDVVVVVSSDVTDFCKKLSESMVGEKEYCFAEFAFPADIFDADEDEIDEMMKYAIVFVEKEKLSEAGRNAIR | soluble
12 | GHMPTKQQLLYEGKAKKIYATDEPDVLWVEYKDSATAFNGEKKATIAGKGRLNNEISSLLFLKLREAGIANHFIEKLSPTEQLVRRVTIIPLEVVVRNVVAGSLAKRIGLEEGTPLEAPLVEFYYKNDDLGDPLLLEDHIFILKLASREEVAALKQAALAVNDVLRLHFAERNVRLIDFKLEFGRTADGAILLADEISPDTCRLWDAKTNEKLDKDVFRRDLGSLTDAYEVILQRLGGESACTK | soluble
13 | GHMRRELAIEFSRVTESAALAGYKWLGRGDKNTADGAAVNAMRIMLNQVNIDGTIVIGEGEIDEAPMLYIGEKVGTGRGDAVDIAVDPIEGTRMTAMGQANALAVLAVGDKGCFLNAPDMYMEKLIVGPGAKGTIDLNLPLADNLRNVAAALGKPLSELTVTILAKPRHDAVIAEMQQLGVRVFAIPDGDVAASILTCMPDSEVDVLYGIGGAPEGVVSAAVIRALDGDMNGRLLARHDVKGDNEENRRIGEQELARCKAMGIEAGKVLRLGDMARSDNVIFSATGITKGDLLEGISRKGNIATTETLLIRGKSRTIRRIQSIHYLDRKDPEMQVHIL | soluble
14 | GHMYETIRYEVKGQVAWLTLNRPDQLNAFTEQMNAEVTKALKQAGADPNVRCVVITGAGRAFCAGEDLSGVTEEMDHGDVLRSRYAPMMKALHHLEKPVVAAVNGAAAGAGMSLALACDFRLLSEKASFAPAFIHVGLVPDAGHLYYLPRLVGRAKALELAVLGEKVTAEEAAALGLATKVIPLSDWEEEVKQFAERLSAMPTKAIGLIKRLLRESEETTFDRYLEREAECQRIAGLTSDHREGVKAFFEKRKPLFQGN | soluble
15 | GKDAHVILRSNFTLSKNKILNWEDTKKPYTYLENNGYANNVQRGFVAMGLFKDQQDVEMSPTQFGTVRPGDIKYRDINGDGKITDDDKVPLFAYSGVPQLMYGIGAEFRYKSWTLNVLFKGTGRNKFLYGGSDGRNFDGYMPFNQKDKGNIMTIAYNPENRWISAEYSGNQATENPNARFPRLYYGKNENNTKPSTFWMGDARYLRLQELSLAYNLKVPALQRILGINSMNIQLMCENLAVWDSVNIFDPEQATSCGQAYPLPARYSLQLYLNF | not soluble
16 | GKPIRSPGVLLDIDSRRTAEAERDRLNELLQIFTAAVPGVVYAKDLEGRMLVANRGTAELVGKPPEFFIGKTDLEFLDDEQQARVLMETDQRIMQSNVSEQIEEKVNLADGSAAIWLSTKAPLLDRN | not soluble
17 | GKSASMAVEEIASRKDISLRDMQISAILKMLFLNKDLNNNDNITTITDDIFNQQEIIWKVLILDIKSTATISSVLRVNDLLKAGITVHSLIKQDRSPLPDVPAIYFVSPTKENIDIIVNDLKSDKYSEFYINFTSSLPRNLLEDLAQQVSITGKSDKIKQVYDQYLDFIVTEPELFSLEISNAYLTLNDPKTTEEEITGLCANIADGLFNTVLTINSIPIIRAAKGGPAEIIAEKLGTKLRDFVINTNSSSTSTLQGNDSLERGVLIILDRNIDFASMFSHSWIYQCMVFDIFKLSRNTVTIPLESKENGTDNTTAKPLATKKYDIEPNDFFWMENSHLPFPEAAENVEAALNTYKEEAAEITRKTGVTNISDLDPNSNNDTVQIQEVVKKLPELTAKKNTIDTHMNIFAALLSQLESKSLDTFFEVEQDPGSTKTRSRFLDILKDGKTNNLEDKLRSFIVLYLTSTTGLPKDFVQNVENYFKENDYDINALKYVYKLREFMQLSNMSLQNKSLEDGSDSAFKPSNLTLSGIYGLTEGKLQGGVGSLISGIKKLLPEKKTIPITNVVDAIMDPLNSSQKNLETTDSYLYIDPKITRGSHTRKPKRQSYNKSLVFVVGGGNYLEYQNLQEWAHSQLHNPKKVMYGSTAITTPAEFLNEISRLGASNSSNNDA | soluble
18 | GLDTGALDQQQNNNGRESIRTVNVSVNNAVTKIVSNMSPAVVGVVNIQKSDIWGESGEAGSGSGVIYKKNDHSAYVVTNHHVIEGASQIEISLKDGSRVSADLVGSDQLMDLAVLRVKSDKIKAVADFGNSDKVKSGEPVIAIGNPLGLEFAGSVTQGVISGTERAIPVDSNGDGQPDWNAEVLQTDAAINPGNSGGALLNMDGKVIGINSMKIAESAVEGIGLSIPSKLVIPVIEDLERYGKVKRPFLGIEMKSLSDIASYHWDETLKLPKNVTNGAVVMGVDAFSPAGKAGLKELDVITEFDGYKVNDIVDLRKRLYQKKVGDRVKVKFYRGGKEKSVDIKLSSA | not soluble
19 | GLEAVRKRPGMYIGSTSERGLHHLVWEIVDNSIDEALAGYANQIEVVIEKDNWIKVTDNGRGIPVDIQEKMGRPAVEVILTSSVVNALSQDLEVYVHRNETIYHQAYKKGVPQFDLKEVGTTDKTGTVIRFKADGEIFTETTVYNYETLQQRIRELAFLNKGIQITLRDERDEENVREDSYHYE | soluble
20 | GLGNVDETLEIKQLLNIYRDLQLGHFCAFYQPQKHIDSGGVVAFEALARRVIGKGLYEMPDRFFPILEKYHLIPTLTEVMVRDILTFLMTEDAVLQDITIGVNIPGKMLTDGSFYRLLLSVAEEKQAQHALHRLSVEITEHDLIADFDAAKHEIYKLKSLGIRCALDDFGTGYSGYEYLCEIPFDVVKIDGRYIQSLGKAESSTVILQSMISSIKSLSMQVIAEWVDSDQQYQILQEMGCDLVQGYLVSPA | not soluble
21 | GMAEQMRRVARLFGDWPETIIWTCLEGTMGDIYVDDSQSPQSALALYGRQSFFGFLAGQPHRDLLKICEGKNIILVPQNQAWSDLIEEVYGDGVRFFTRYATKKDTEFDLGHLQKLVDDLPESFDMKLIDRNLYETCLVEEWSRDLVGNYIDVEQFLDLGLGCVILHKGQVVSGASSYASYSAGIEIEVDTREDYRGLGLAKACAAQLILACLDRGLYPSWDAHTLTSLKLAEKLGYELDKAYQAYEWR | soluble
22 | GMDNWQDITDDRLVRPIHPGEVIADILDDLDINTANFAEILGVSNQTIQEVINGQRSITVDIAIRLGKALGNGPRLWLNLQQKVDLWYALQSHKEEYEQVMTLV | soluble
23 | GMEKRLDYITDLMALGPTANARTIQRRQTAHRLAIAEAWQVKPGEKILEIGCGQGDLSAVLADQVGSSGHVTGIDIASPDYGAPLTLGQAWNHLLAGPLGDRLTVHFNTNLSDDLGPIADQHFDRVVLAHSLWYFASANALALLFKNMAAVCDHVDVAEWSMQPTALDQIGHLQAAMIQGLLYAIAPSDVANIRTLITPDTLAQIAHDNTWTYTAGTIVEDPTLDDAHWEIATTNALLTELKLSTDLRDRVKPLLEAMSHNGTASLATFTGRITF | soluble
24 | GMIDEKFLIESNELVESSKIVMVGTNGENGYPNIKAMMRLKHDGLKKFWLSTNTSTRMVERLKKNNKICLYFVDDNKFAGLMLVGTIEILHDRASKEMLWTDGCEIYYPLGIDDPDYTALCFTAEWGNYYRHLKNITFKIDEIYNY | soluble
25 | GMKEDTIEIAGFHAHVYFDAASRDVAARVREGLGARFEVQLGRWFDKPIGPHPKGMYQVAFLPNQFDKVVPWLMLNREGLDILVHPETGDAVSDHAVYSLWLGAALALNIEFLRQLSSTSSN | soluble
